In IntAct's records for PubMed 35512704:

B1: Mothers against decapentaplegic homolog 4 (Homo sapiens), Q13485 (parent)
chain: MDNMSITNTPTSNDACLSIVHSLMCHRQGGESETFAKRAIESLVKKLKEKKDELDSLITAITTNGAHPSKCVTIQRTLDGRLQVAGRKGFPHVIYARLWRWPDLHKNELKHVKYCQYAFDLKCDSVCVNPYHYERVVSPGIDLSGLTLQSNAPSSMMVKDEYVHDFEGQPSLSTEGHSIQTIQHPPSNRASTETYSTPALLAPSESNATSTANFPNIPVASTSQPASILGGSHSEGLLQIASGPQPGQQQNGFTGQPATYHHNSTTTWTGSRTAPYTPNLPHHQNGHLQHHPPMPPHPGHYWPVHNELAFQPPISNHPAPEYWCSIAYFEMDVQVGETFKVPSSCPIVTVDGYVDPSGGDRFCLGQLSNVHRTEAIERARLHIGKGVQLECKGEGDVWVRCLSDHAVFVQSYYLDREAGRAPGDAVHKIYPSAYIKVFDLRQCHRQMQQQAATAQAAAAAQAAAVAGNIPGPGSVGGIAPAISLSAAAGIGVDDLRRLCILRMSFVKGWGPDYPRQSIKETPCWIEIHLHRALQLLDEVLHTMPIADPQPLD
partner: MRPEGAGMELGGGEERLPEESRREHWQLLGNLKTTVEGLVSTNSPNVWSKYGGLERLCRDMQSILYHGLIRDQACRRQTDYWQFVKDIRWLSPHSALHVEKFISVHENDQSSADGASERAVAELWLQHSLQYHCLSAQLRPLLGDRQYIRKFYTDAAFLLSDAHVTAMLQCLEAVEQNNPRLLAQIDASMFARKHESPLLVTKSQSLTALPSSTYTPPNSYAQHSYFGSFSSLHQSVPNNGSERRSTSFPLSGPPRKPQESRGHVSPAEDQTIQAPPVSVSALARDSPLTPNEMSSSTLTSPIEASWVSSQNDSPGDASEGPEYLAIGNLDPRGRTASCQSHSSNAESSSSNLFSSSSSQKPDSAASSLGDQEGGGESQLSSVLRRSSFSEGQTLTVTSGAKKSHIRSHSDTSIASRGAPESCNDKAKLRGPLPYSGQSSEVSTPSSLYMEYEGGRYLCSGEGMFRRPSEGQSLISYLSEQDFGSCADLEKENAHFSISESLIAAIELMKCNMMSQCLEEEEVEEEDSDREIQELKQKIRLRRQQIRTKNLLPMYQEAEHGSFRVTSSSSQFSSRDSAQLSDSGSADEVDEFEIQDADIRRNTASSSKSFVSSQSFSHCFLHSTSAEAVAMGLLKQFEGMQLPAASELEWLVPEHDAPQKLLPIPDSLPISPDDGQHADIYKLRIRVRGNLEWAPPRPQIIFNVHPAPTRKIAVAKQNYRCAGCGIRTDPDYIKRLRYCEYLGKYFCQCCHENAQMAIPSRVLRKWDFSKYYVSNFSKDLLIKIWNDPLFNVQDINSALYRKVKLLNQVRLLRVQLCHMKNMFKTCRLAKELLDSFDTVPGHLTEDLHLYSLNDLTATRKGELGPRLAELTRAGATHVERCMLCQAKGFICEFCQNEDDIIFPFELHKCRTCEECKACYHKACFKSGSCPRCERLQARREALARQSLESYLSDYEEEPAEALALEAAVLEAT
B2: Mothers against decapentaplegic homolog 4 (Homo sapiens), Q13485 (parent)
chain: B1 chain
partner: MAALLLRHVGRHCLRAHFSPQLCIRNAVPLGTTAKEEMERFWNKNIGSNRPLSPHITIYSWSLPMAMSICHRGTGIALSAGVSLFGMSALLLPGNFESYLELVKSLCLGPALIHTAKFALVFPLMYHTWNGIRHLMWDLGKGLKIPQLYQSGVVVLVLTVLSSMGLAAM
B3: Mothers against decapentaplegic homolog 4 (Homo sapiens), Q13485 (parent)
chain: B1 chain
partner: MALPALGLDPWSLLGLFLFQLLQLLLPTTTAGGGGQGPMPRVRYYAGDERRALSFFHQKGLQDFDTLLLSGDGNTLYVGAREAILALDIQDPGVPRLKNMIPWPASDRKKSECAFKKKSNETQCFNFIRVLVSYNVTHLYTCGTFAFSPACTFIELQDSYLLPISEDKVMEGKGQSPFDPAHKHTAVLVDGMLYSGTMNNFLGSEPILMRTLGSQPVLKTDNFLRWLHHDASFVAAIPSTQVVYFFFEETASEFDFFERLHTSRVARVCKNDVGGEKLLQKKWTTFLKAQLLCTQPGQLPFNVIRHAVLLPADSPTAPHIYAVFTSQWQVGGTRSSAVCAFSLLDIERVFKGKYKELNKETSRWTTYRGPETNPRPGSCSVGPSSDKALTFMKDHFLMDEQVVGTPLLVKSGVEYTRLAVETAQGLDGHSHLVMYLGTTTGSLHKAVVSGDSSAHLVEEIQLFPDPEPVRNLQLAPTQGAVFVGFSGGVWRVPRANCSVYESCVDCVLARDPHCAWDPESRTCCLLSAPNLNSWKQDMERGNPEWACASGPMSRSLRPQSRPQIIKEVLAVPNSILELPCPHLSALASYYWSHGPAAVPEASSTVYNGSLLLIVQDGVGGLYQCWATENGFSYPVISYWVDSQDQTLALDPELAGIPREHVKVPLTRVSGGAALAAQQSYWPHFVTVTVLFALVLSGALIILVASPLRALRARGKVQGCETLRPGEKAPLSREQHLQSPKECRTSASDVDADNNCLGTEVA
B4: Mothers against decapentaplegic homolog 4 (Homo sapiens), Q13485 (parent)
chain: B1 chain
partner: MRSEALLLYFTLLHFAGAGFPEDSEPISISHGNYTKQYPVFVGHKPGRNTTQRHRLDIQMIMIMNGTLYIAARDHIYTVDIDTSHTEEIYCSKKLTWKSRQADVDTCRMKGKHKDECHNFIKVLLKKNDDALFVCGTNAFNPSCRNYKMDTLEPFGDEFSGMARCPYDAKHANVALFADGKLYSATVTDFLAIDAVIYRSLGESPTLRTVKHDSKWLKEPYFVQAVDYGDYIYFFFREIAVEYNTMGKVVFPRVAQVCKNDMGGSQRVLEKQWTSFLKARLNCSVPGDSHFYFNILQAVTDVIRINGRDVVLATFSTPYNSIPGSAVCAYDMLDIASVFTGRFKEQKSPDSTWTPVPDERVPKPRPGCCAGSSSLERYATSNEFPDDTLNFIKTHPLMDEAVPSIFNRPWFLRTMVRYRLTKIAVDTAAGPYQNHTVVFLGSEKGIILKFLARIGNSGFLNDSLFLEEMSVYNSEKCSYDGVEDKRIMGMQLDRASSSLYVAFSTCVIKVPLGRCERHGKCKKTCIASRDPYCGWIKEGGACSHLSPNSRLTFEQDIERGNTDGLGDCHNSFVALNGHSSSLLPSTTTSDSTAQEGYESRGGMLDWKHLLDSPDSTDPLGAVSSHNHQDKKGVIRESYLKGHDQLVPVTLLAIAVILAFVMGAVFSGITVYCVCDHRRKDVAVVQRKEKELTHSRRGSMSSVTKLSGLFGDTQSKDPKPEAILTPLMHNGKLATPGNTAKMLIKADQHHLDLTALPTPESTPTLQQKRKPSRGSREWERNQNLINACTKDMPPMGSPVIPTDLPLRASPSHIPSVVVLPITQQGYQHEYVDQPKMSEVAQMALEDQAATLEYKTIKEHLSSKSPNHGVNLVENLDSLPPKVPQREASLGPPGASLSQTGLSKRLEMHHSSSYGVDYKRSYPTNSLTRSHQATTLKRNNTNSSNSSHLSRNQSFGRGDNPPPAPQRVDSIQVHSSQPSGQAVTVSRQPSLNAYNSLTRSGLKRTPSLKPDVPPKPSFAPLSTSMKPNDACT
B5: Mothers against decapentaplegic homolog 4 (Homo sapiens), Q13485 (parent)
chain: B1 chain
partner: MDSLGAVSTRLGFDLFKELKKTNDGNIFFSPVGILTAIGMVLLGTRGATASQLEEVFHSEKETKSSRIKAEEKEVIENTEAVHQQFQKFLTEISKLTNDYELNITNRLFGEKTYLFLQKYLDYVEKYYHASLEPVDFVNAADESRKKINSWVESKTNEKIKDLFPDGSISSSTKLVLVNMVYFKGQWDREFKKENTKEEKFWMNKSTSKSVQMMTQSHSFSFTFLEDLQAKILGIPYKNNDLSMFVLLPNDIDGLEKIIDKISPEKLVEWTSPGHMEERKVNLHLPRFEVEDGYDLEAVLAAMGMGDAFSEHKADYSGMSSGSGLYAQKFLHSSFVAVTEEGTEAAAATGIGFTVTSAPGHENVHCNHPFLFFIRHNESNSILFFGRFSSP
B6: Mothers against decapentaplegic homolog 4 (Homo sapiens), Q13485 (parent)
chain: B1 chain
partner: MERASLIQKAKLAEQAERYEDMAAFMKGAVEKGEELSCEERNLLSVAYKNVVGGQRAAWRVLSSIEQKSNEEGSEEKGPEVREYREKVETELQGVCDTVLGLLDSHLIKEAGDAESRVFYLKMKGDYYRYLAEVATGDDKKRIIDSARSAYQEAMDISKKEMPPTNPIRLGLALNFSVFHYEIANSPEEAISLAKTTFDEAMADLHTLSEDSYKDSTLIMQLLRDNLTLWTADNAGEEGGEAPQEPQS

Variants of: B1
Conditions: with rubic_human RUBCN

Row | Variant | effect of a mutation on the interaction
1 | D351H | with no effect

Variants of: B1
Conditions: with rubic_human RUBCN
Remark: another data set of the same source

Row | Variant | effect of a mutation on the interaction
2 | G386D | with no effect

Variants of: B1
Conditions: with rubic_human RUBCN
Remark: another data set of the same source

Row | Variant | effect of a mutation on the interaction
3 | R361C | with no effect

Variants of: B1
Conditions: with rubic_human RUBCN
Remark: another data set of the same source

Row | Variant | effect of a mutation on the interaction
4 | R361H | with no effect

Variants of: B2
Conditions: with c560_human SDHC

Row | Variant | effect of a mutation on the interaction
5 | D351H | with no effect

Variants of: B2
Conditions: with c560_human SDHC
Remark: another data set of the same source

Row | Variant | effect of a mutation on the interaction
6 | G386D | with no effect

Variants of: B2
Conditions: with c560_human SDHC
Remark: another data set of the same source

Row | Variant | effect of a mutation on the interaction
7 | R361C | with no effect

Variants of: B2
Conditions: with c560_human SDHC
Remark: another data set of the same source

Row | Variant | effect of a mutation on the interaction
8 | R361H | with no effect

Variants of: B3
Conditions: with sem4a_human SEMA4A

Row | Variant | effect of a mutation on the interaction
9 | D351H | with no effect

Variants of: B3
Conditions: with sem4a_human SEMA4A
Remark: another data set of the same source

Row | Variant | effect of a mutation on the interaction
10 | G386D | with no effect

Variants of: B3
Conditions: with sem4a_human SEMA4A
Remark: another data set of the same source

Row | Variant | effect of a mutation on the interaction
11 | R361C | with no effect

Variants of: B3
Conditions: with sem4a_human SEMA4A
Remark: another data set of the same source

Row | Variant | effect of a mutation on the interaction
12 | R361H | with no effect

Variants of: B4
Conditions: with sem6a_human SEMA6A

Row | Variant | effect of a mutation on the interaction
13 | D351H | with no effect

Variants of: B4
Conditions: with sem6a_human SEMA6A
Remark: another data set of the same source

Row | Variant | effect of a mutation on the interaction
14 | G386D | with no effect

Variants of: B4
Conditions: with sem6a_human SEMA6A
Remark: another data set of the same source

Row | Variant | effect of a mutation on the interaction
15 | R361C | with no effect

Variants of: B4
Conditions: with sem6a_human SEMA6A
Remark: another data set of the same source

Row | Variant | effect of a mutation on the interaction
16 | R361H | with no effect

Variants of: B5
Conditions: with spb13_human SERPINB13, Q9UIV8

Row | Variant | effect of a mutation on the interaction
17 | D351H | with no effect

Variants of: B5
Conditions: with spb13_human SERPINB13, Q9UIV8
Remark: another data set of the same source

Row | Variant | effect of a mutation on the interaction
18 | G386D | with no effect

Variants of: B5
Conditions: with spb13_human SERPINB13, Q9UIV8
Remark: another data set of the same source

Row | Variant | effect of a mutation on the interaction
19 | R361C | with no effect

Variants of: B5
Conditions: with spb13_human SERPINB13, Q9UIV8
Remark: another data set of the same source

Row | Variant | effect of a mutation on the interaction
20 | R361H | with no effect

Variants of: B6
Conditions: with 1433s_human SFN

Row | Variant | effect of a mutation on the interaction
21 | D351H | with no effect

Variants of: B6
Conditions: with 1433s_human SFN
Remark: another data set of the same source

Row | Variant | effect of a mutation on the interaction
22 | G386D | with no effect

Variants of: B6
Conditions: with 1433s_human SFN
Remark: another data set of the same source

Row | Variant | effect of a mutation on the interaction
23 | R361H | with no effect
